From patent US20140178353A1

Molecular target: Lon protease of E. coli (endogenous) (E. coli) (UniProt P0A9M0)
Experiment: cell-based or functional assay

UniProt P0A9M0, sequence (P0A9M0 2-784 limits assumed): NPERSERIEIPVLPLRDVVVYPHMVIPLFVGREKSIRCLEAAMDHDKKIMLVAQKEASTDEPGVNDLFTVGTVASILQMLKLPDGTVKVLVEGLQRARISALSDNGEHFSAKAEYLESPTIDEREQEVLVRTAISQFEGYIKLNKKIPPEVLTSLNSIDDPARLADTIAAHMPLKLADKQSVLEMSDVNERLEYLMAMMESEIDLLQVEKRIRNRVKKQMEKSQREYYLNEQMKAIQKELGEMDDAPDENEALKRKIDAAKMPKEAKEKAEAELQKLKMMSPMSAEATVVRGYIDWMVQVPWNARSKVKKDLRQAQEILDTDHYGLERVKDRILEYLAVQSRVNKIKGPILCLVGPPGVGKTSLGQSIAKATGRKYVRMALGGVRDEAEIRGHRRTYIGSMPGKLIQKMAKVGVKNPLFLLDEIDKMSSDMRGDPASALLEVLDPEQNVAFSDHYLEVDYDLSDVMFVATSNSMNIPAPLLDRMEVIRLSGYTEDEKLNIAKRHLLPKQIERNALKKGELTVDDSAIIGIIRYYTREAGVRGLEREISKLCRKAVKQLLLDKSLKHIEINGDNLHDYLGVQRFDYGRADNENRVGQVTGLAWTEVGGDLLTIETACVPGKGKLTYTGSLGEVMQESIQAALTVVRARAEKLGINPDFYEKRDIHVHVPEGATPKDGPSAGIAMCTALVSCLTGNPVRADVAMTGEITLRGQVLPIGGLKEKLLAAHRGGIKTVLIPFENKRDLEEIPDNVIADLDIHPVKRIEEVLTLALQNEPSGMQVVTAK

T7 phage gene product (Gp) 4.5 expressed in E. coli from a plasmid (peptide)
fold decrease in persistence: fraction of surviving E. coli cells following 5 hr exposure to ampicillin: 5 fold
